# Biological target: C1-100, C-terminally truncated C protein of HPIV3, C-terminally flag-tagged (human parainfluenza virus type 3)
# Test: co-IP
substance,measurement,value
"HPIV3 L protein (viral RNA polymerase), non-tagged (from UniProt P12577 1-2233) (enzyme)",L/C ratio,0.03

# — PMC2767389
